The record followed here is article PMC6127106 (2018).

The target in this test is purified human platelet αIIbβ3 integrin (human, UniProt P05106 27-788). Nature of the test: 2D off-rate, biomembrane force probe adhesion frequency.

B1: human fibrinogen (ligand)
chain 1: GPRVVERHQSACKDSDWPFCSDEDWNYKCPSGCRMKGLIDEVNQDFTNRINKLKNSLFEYQKNNKDSHSLTTNIMEILRGDFSSANNRDNTYNRVSEDLRSRIEVLKRKVIEKVQHIQLLQKNVRAQLVDMKRLEVDIDIKIRSCRGSCSRALAREVDLKDYEDQQKQLEQVIAKDLLPSRDRQHLPLIKMKPVPDLVPGNFKSQLQKVPPEWKALTDMPQMRMELERPGGNEITRGGSTSYGTGSETESPRNPSSAGSWNSGSSGPGSTGNRNPGSSGTGGTATWKPGSSGPGSTGSWNSGSSGTGSTGNQNPGSPRPGSTGTWNPGSSERGSAGHWTSESSVSGSTGQWHSESGSFRPDSPGSGNARPNNPDWGTFEEVSGNVSPGTRREYHTEKLVTSKGDKELRTGKEKVTSGSTTTTRRSCSKTVTKTVIGPDGHKEVTKEVVTSEDGSDCPEAMDLGTLSGIGTLDGFRHRHPDEAAFFDTASTGKTFPGFFSPMLGEFVSETESRGSESGIFTNTKESSSHHPGIAEFPSRGKSSSYSKQFTSSTSYNRGDSTFESKSYKMADEAGSEADHEGTHSTKRGHAKSRPVRDCDDVLQTHPSGTQSGIFNIKLPGSSKIFSVYCDQETSLGGWLLIQQRMDGSLNFNRTWQDYKRGFGSLNDEGEGEFWLGNDYLHLLTQRGSVLRVELEDWAGNEAYAEYHFRVGSEAEGYALQVSSYEGTAGDALIEGSVEEGAEYTSHNNMQFSTFDRDADQWEENCAEVYGGGWWYNNCQAANLNGIYYPGGSYDPRNNSPYEIENGVVWVSFRGADYSLRAVRMKIRPLVTQ
chain 2: GHRPLDKKREEAPSLRPAPPPISGGGYRARPAKAAATQKKVERKAPDAGGCLHADPDLGVLCPTGCQLQEALLQQERPIRNSVDELNNNVEAVSQTSSSSFQYMYLLKDLWQKRQKQVKDNENVVNEYSSELEKHQLYIDETVNSNIPTNLRVLRSILENLRSKIQKLESDVSAQMEYCRTPCTVSCNIPVVSGKECEEIIRKGGETSEMYLIQPDSSVKPYRVYCDMNTENGGWTVIQNRQDGSVDFGRKWDPYKQGFGNVATNTDGKNYCGLPGEYWLGNDKISQLTRMGPTELLIEMEDWKGDKVKAHYGGFTVQNEANKYQISVNKYRGTAGNALMDGASQLMGENRTMTIHNGMFFSTYDRDNDGWLTSDPRKQCSKEDGGGWWYNRCHAANPNGRYYWGGQYTWDMAKHGTDDGVVWMNWKGSWYSMRKMSMKIRPFFPQQ
chain 3: YVATRDNCCILDERFGSYCPTTCGIADFLSTYQTKVDKDLQSLEDILHQVENKTSEVKQLIKAIQLTYNPDESSKPNMIDAATLKSRKMLEEIMKYEASILTHDSSIRYLQEIYNSNNQKIVNLKEKVAQLEAQCQEPCKDTVQIHDITGKDCQDIANKGAKQSGLYFIKPLKANQQFLVYCEIDGSGNGWTVFQKRLDGSVDFKKNWIQYKEGFGHLSPTGTTEFWLGNEKIHLISTQSAIPYALRVELEDWNGRTSTADYAMFKVGPEADKYRLTYAYFAGGDAGDAFDGFDFGDDPSDKFFTSHNGMQFSTWDNDNDKFEGNCAEQDGSGWWMNKCHAGHLNGVYYQGGTYSKASTPNGYDNGIIWATWKTRWYSMKKTTMKIIPFNRLTIGEGQQHHLGGAKQVRPEHPAETEYDSLYPEDDL
B1: the off-rate constant (koff) (in general, the first-order rate constant of dissociation) was 8.41 s⁻¹.

B2: C-terminal biotinylated recombinant human apoA-IV (apoA-IV-GGC) (ligand)
chain: EVSADQVATVMWDYFSQLSNNAKEAVEHLQKSELTQQLNALFQDKLGEVNTYAGDLQKKLVPFATELHERLAKDSEKLKEEIGKELEELRARLLPHANEVSQKIGDNLRELQQRLEPYADQLRTQVSTQAEQLRRQLTPYAQRMERVLRENADSLQASLRPHADELKAKIDQNVEELKGRLTPYADEFKVKIDQTVEELRRSLAPYAQDTQEKLNHQLEGLTFQMKKNAEELKARISASAEELRQRLAPLAEDVRGNLRGNTEGLQKSLAELGGHLDQQVEEFRRRVEPYGENFNKALVQQMEQLRQKLGPHAGDVEGHLSFLEKDLRDKVNSFFSTFKEKESQDKTLSLPELEQQQEQQQEQQQEQVQMLAPLESGGC
modifications: maleimide-PEG2-biotin on the C-terminal cysteine of the GlyGlyCys linker
B2 gave a koff of 7.85 s⁻¹.
